# According to the supplement of paper PMC10065799, “High-throughput profiling of sequence recognition by tyrosine kinases and SH2 domains using bacterial peptide display” (eLife, 2023):
# What was measured:
# AncSZ = assay: phosphorylation enrichment, bacterial display (enrichment ratio); higher = better substrate or ligand; peptides without Tyr show the background
# EPHB1 = EPHB1 (UniProt P54762); assay: as above
# EPHB2 = EPHB2 (UniProt P29323); assay: as above
# FGFR1 = FGFR1 (UniProt P11362); assay: as above
# FGFR3 = FGFR3 (UniProt P22607); assay: as above
# Chain of FGFR3 (P22607 whole entry, looked up): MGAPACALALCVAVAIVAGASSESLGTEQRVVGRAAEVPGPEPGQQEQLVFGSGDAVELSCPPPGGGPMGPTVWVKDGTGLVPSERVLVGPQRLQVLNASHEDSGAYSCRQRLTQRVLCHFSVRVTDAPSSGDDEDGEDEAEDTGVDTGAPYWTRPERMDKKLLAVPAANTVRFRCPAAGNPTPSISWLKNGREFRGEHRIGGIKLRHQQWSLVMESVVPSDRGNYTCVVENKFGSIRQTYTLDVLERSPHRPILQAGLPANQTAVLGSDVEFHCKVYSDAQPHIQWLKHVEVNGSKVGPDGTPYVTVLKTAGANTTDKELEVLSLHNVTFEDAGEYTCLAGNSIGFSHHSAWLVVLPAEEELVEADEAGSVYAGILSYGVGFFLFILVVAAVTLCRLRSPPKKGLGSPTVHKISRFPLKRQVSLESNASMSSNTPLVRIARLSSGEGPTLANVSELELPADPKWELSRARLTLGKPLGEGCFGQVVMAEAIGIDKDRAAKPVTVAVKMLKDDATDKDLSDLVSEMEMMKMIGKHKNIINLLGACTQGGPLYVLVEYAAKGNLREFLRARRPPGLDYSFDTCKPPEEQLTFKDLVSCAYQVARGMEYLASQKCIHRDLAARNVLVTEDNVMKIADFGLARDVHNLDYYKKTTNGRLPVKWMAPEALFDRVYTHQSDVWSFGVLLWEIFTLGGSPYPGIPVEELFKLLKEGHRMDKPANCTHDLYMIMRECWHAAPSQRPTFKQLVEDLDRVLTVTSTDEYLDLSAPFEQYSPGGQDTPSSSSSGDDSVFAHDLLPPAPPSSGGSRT
# Fer (mouse) = assay: as above
# Fes = Fes (UniProt P07332); assay: as above
# Chain of Fes (P07332 whole entry, looked up): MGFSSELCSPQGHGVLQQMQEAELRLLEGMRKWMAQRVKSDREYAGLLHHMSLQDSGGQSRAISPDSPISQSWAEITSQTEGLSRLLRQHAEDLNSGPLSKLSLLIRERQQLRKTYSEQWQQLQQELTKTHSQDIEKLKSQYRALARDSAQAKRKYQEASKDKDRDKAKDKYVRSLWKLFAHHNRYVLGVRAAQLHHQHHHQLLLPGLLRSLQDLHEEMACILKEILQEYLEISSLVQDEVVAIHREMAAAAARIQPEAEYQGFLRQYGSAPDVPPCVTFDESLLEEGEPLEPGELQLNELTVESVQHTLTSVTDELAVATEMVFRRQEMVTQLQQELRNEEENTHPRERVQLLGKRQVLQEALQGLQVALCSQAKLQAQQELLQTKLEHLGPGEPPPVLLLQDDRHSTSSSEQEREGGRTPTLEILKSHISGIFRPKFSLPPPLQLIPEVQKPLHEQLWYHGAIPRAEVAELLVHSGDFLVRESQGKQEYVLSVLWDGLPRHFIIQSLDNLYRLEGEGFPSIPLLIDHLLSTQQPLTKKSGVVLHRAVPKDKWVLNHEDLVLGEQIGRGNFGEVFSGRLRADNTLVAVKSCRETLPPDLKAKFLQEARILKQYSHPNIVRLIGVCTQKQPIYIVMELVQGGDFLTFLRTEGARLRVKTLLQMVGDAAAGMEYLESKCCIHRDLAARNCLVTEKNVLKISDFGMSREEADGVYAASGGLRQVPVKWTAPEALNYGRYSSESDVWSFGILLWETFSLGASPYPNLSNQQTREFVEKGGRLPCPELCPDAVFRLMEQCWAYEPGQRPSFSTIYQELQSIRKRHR
# Fyn = Fyn (UniProt P06241); assay: as above
# Hck = Hck (UniProt P08631); assay: as above
# Jak2 = Jak2 (UniProt O60674); assay: as above
# Chain of Jak2 (O60674 whole entry, looked up): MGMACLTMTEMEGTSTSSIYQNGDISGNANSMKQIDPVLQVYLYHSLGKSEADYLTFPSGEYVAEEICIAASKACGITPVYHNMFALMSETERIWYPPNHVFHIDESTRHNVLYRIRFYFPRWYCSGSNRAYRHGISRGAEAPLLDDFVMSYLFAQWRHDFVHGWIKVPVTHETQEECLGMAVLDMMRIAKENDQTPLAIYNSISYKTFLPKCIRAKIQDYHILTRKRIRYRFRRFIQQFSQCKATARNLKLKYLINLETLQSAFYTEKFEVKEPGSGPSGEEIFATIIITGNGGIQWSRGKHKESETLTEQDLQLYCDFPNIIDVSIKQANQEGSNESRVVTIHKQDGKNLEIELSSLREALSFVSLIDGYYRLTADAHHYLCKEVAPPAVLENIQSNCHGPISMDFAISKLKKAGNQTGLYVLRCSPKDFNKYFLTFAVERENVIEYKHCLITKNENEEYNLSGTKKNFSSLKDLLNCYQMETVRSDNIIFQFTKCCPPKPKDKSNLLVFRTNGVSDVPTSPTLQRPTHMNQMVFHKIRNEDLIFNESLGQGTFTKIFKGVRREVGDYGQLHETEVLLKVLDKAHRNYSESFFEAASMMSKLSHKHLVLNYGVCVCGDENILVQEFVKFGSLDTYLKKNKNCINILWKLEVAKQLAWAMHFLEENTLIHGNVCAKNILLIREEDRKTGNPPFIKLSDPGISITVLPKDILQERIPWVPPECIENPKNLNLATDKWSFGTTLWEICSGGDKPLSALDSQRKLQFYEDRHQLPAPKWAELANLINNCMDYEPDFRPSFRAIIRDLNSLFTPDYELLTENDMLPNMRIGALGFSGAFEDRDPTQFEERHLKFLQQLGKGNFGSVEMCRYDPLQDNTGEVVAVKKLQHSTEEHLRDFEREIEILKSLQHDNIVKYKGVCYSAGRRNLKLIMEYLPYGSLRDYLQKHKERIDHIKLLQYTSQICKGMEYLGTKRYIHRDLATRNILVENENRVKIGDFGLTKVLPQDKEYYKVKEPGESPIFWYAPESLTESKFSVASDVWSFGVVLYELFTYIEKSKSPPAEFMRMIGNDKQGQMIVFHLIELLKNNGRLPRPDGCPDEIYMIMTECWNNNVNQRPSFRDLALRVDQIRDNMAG
# MERTK = MERTK (UniProt Q12866); assay: as above
# c-Abl (mouse) = assay: as above
# c-Src = assay: as above
# Grb2 SH2 = Grb2 SH2 (UniProt P62993); assay: SH2 binding enrichment of the phosphorylated peptide, bacterial display (enrichment ratio); higher = better substrate or ligand; peptides without Tyr show the background
# Chain of Grb2 SH2 (P62993 whole entry, looked up): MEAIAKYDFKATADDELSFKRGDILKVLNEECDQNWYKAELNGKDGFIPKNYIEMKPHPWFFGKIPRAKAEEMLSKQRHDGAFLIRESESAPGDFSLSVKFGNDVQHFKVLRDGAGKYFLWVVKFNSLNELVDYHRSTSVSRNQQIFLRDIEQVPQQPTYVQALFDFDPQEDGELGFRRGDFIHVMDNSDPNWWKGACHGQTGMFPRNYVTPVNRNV
# SHP2-C SH2 = assay: as above
# c-Src SH2 = assay: as above
# 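Throughout, for SH2 binding enrichment of the phosphorylated peptide, bacterial display: peptide library displayed on the E. coli surface as eCPX fusions, selected cells deep-sequenced, score is each peptide's frequency after selection divided by its frequency in the input.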
# 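Throughout, for phosphorylation enrichment, bacterial display: 11-residue human phosphosite peptides and single-mutation variants displayed on the E. coli surface, counted by deep sequencing, each peptide's frequency after selection divided by its frequency in the unselected input library; frequency after pTyr selection over input frequency; kinase dosed for 20-30% of maximal phosphorylation in three min.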
# Chain of EPHB2 (P29323 whole entry, looked up): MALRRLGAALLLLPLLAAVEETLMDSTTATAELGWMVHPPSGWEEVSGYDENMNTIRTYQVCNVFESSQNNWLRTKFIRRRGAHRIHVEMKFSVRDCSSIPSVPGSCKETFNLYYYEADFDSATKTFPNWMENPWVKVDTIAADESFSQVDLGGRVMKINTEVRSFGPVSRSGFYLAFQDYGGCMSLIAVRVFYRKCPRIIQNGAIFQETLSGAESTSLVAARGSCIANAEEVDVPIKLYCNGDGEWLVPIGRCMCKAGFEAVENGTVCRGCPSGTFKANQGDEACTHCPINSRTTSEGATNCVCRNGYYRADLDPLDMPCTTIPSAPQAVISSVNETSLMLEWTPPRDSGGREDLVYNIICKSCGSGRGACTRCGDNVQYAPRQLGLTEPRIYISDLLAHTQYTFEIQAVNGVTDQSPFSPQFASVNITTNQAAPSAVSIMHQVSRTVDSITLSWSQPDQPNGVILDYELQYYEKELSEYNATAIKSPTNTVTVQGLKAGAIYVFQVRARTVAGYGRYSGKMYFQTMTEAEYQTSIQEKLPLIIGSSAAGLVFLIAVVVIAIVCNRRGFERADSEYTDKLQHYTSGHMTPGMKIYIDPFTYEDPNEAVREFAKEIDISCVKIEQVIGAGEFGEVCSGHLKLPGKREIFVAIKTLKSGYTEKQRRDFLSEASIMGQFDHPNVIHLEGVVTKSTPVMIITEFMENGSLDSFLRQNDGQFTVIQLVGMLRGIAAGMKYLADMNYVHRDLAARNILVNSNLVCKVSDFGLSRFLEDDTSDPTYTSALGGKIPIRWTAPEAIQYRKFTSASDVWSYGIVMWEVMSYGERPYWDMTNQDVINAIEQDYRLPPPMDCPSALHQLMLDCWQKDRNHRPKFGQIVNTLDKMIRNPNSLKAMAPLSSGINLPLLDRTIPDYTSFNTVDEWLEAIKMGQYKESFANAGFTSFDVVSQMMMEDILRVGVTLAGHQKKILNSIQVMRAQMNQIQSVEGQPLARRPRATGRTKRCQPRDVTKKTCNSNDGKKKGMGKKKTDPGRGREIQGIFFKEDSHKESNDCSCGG
# Chain of EPHB1 (P54762 whole entry, looked up): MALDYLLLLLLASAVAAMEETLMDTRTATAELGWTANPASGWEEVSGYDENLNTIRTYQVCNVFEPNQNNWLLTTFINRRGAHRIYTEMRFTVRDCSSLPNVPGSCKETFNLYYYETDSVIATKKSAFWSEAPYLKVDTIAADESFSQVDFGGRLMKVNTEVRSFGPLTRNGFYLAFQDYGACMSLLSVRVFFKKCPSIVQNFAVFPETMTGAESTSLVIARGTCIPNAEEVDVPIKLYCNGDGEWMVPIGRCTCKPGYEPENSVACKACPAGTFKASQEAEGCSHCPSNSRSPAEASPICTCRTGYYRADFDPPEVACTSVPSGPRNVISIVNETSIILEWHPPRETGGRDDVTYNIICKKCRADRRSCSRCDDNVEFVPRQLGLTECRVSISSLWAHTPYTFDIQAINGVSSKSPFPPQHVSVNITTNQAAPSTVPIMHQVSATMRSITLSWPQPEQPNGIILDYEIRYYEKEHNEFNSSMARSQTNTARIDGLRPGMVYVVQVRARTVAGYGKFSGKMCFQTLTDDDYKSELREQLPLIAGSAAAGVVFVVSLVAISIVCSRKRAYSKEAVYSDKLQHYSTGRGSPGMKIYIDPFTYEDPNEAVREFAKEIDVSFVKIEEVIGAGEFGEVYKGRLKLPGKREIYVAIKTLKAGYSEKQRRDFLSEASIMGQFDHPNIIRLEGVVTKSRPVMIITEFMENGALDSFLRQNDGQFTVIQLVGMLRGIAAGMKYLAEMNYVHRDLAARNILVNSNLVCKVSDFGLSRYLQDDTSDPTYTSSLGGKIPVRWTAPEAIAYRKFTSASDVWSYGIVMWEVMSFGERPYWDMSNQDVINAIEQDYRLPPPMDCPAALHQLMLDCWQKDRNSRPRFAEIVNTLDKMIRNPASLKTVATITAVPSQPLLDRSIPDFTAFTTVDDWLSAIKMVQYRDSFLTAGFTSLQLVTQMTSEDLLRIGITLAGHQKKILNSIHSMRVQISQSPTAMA
Sequence,phosphorylation enrichment (AncSZ),phosphorylation enrichment (EPHB1),phosphorylation enrichment (EPHB2),phosphorylation enrichment (FGFR1),phosphorylation enrichment (FGFR3),phosphorylation enrichment (Fer (mouse)),phosphorylation enrichment (Fes),phosphorylation enrichment (Fyn),phosphorylation enrichment (Hck),phosphorylation enrichment (Jak2),phosphorylation enrichment (MERTK),phosphorylation enrichment (c-Abl (mouse)),phosphorylation enrichment (c-Src),SH2 binding enrichment (Grb2 SH2),SH2 binding enrichment (SHP2-C SH2),SH2 binding enrichment (c-Src SH2)
YLAATYPTLGQ [NF1_Y2508_V2511L],0.779,0.331,0.663,0.824,0.642,0.677,0.773,0.433,0.633,0.754,0.742,0.774,0.637,0.872,0.859,0.764
EKLQKYYRQNP [EHHADH_Y682],0.523,0.568,0.543,0.509,0.497,0.367,0.667,0.391,0.408,0.55,0.371,0.581,0.428,0.927,0.746,0.548
TEQDPYNNIVC [MMUT_Y364_R369C],1.14,0.555,0.572,0.659,0.666,0.627,1.22,0.555,0.566,0.952,0.528,0.784,0.642,0.86,0.814,1.52
FADIAYNYRRG [PAH_Y166_H170R],0.638,0.493,0.458,0.39,0.449,0.329,0.702,0.466,0.452,0.529,0.429,0.502,0.511,0.699,0.583,0.427
SFVVRYNQPRV [GRIN2D_Y736_M733V_YF],1.01,0.559,0.517,0.499,0.608,0.49,1.1,0.483,0.515,0.794,0.366,0.663,0.377,1.06,0.697,0.972
HDKEYYSVHNK [MET_Y1235_Y1230H],1.24,0.714,0.472,2.8,1.88,0.865,0.729,0.739,0.911,0.75,0.503,0.706,0.506,0.939,1.67,0.783
VVGMLYVGRLP [LAMA2_Y2886_G2889R],1.22,0.481,0.643,0.647,0.602,0.552,1.04,0.442,0.455,0.98,0.426,0.654,0.422,0.926,0.987,0.561
QAQMDYRRWQP [MPL_Y591_L594W],0.548,0.523,0.539,0.402,0.491,0.49,0.795,0.461,0.424,0.762,0.373,0.745,0.361,0.635,0.55,0.386
VERIHYIGQNE [HMOX2_Y140],0.617,0.351,0.47,0.555,0.381,0.434,0.638,0.494,0.453,0.553,0.522,0.344,0.368,1.08,0.972,0.437
SPLEVYVDKSQ [FLNA_Y373_F370L],1.2,0.653,0.716,0.631,0.74,0.521,1.25,0.469,0.523,1.14,0.47,0.723,0.508,0.859,0.585,0.477
IYSGIYYKPES [L2HGDH_Y102_H98Y],3.08,14.1,15.9,8.71,7.9,15.8,9.02,10.2,9.78,7.32,11.5,23.7,7.25,1.01,1.22,1.28
IINENYDFLKG [NUP98_Y1664_YF],0.82,0.677,0.726,0.518,0.631,0.466,0.903,0.426,1.19,0.761,0.602,0.57,0.495,0.831,0.737,0.755
NVKGIYAVADV [GSR_Y371_G374A],0.977,2.06,3.77,0.506,0.687,2.06,0.82,3.67,3.79,0.678,6.08,16.5,3.12,0.826,0.599,1.44
SEKVVYQRFTE [NCF1_Y41_R42Q],0.675,0.457,0.394,0.574,0.542,0.508,0.763,0.889,0.959,0.931,0.379,1.07,1.93,0.676,1.72,0.618
ERCAQYKKDVA [ALDOA_Y138_G142V],0.726,0.527,0.607,0.579,0.604,0.45,1.05,0.596,0.525,0.65,0.385,0.624,0.491,1.07,0.976,0.585
EQMLEYMEQLQ [CFAP45_Y289],1.21,0.579,0.561,0.764,0.846,0.526,0.994,0.549,0.638,1.1,0.494,0.532,0.505,0.799,0.5,0.357
